B1: MATN2 (parent)
chain: FSLKTFKRKSEVERAVKRMRHLST

Variants of: B1
Assay: protein stability index of a GFP-peptide fusion (GPS, HEK-293T) (PSI 1-6); higher = more stable
Conditions: c terminus: a fixed tail appended
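Also: lentivirally expressed fusions sorted by FACS into six bins by GFP to DsRed ratio, PSI derived from sequencing read proportions per bin multiplied by bin number.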

Protein stability index, by site and new letter:
T5: D 2.75, P 2.11, I 2.29, R 2.48, V 1.8, H 1.91, Q 3.18, A 1.94, G 2.71, K 2.48, M 2.91, E 1.47, L 1.58, F 2.56, Y 1.89, S 2.4
K9: T 2.09, A 1.78, Q 2.52, G 2.46, F 2.25, Y 2.12, W 3.18, R 1.84, V 1.25, I 1.91, S 2.58, D 2.46, M 2.98, E 1.62, C 2.91, P 1.84, N 1.65
S10: M 1.91, I 1.49, A 1.72, P 2.62, K 2.21, F 1.77, H 2.77, E 2.42, D 2.05, L 1.39, G 1.99, N 3.07
F1: S 2.87, I 2.39, P 3, C 2.45, T 3.02, Q 3.62, L 2.19, G 2.86, E 2.72, V 2.56, M 2.24, R 2.37, Y 3.13, K 3.46, N 3.33, D 2.77, H 3.6, W 1.69, A 3.04
R8: S 1.93, Y 2.29, P 2.7, K 2.33, I 2.12, D 2.85, M 3.23, V 2.15, T 2.47, Q 2.49, H 3.3, F 1.43, C 2.27, G 2.43, L 2.48, N 2.17
K4: N 2.39, C 1.74, T 2.18, H 2.21, F 1.85, L 1.78, M 3.59, R 2.38, Q 2.45, A 1.69, S 2.09, D 2.05, I 2.21, E 1.8, G 2.28, P 2.58
K7: Y 1.77, P 2.05, Q 1.97, C 1.63, R 2.45, S 1.69, D 2.51, H 2.05, A 1.78, L 1.15, I 1.31, N 2.76, V 2.91, T 2.31, F 1.83, M 2.66, G 2.46, W 1.9
S2: A 1.8, T 1.99, R 2.36, L 1.55, V 3.07, C 1.5, N 2.84, Q 3.07, W 1.39, D 2.77, P 2.42, Y 1.82, E 2.51, M 2.5, K 1.95, H 1.99, G 3.21
L3: W 3.27, F 2.23, N 1.98, C 1.93, D 2, V 2.11, G 2.91, T 2.3, E 3.08, Q 2.23, H 2.78, I 2.56, K 3.54, P 2.13, A 2.94, R 3, Y 2.15, S 2.45, M 2.25
F6: V 2.96, Y 3.29, T 2.75, N 2.38, K 3.47, I 2.14, L 2.55, A 2.87, E 3.27, R 2.73, M 2.29, W 1.16, P 2.67, Q 2.85, C 2.28, D 2.43, H 2.94
